Experiment [1] addresses 野生型金黄色葡萄球菌α-溶血素(wtHla) (Staphylococcus aureus (strain MRSA 252)). As to the kind of experiment: cell-based or functional assay.
For experiment [2] the target is unchanged. As to the kind of experiment: ELISA, wtHla coated at 2μg/mL, anti-human IgG Fab-HRP detection. Background: An ELISA detects its analyte on a solid surface through an enzyme-linked reagent.

B1: 全人源Hla单克隆抗体Hla-38 (antibody, V domains shown)
VH: QVQLLESGGGVVQPGRSLRLSCIVSGFDLNSFAMHWVRQPPGKGLEWVAVIWHDGSERFYAASVKGRFTISRDTSRNTLFLQMNSLRVEDTAVYYCAKSGDYYENSGYFGSWGQGALVTVSS
VL: ELVLTQSPATLSVSPGERATLSCRASQSVGNDLAWYQQKPGQAPRLLIYGASTRATGIPARFSGSGFGTEFTLTISSLQSEDFAVYYCQQYNNWWTFGQGTKVDIK
For orientation: EC50 means the concentration needed to bring the measured effect to its halfway point. High values mean lower potency in that assay, low ones higher potency in that assay. In the case of B1, in experiment [1], the 保护率 (mice injected i.p. with 15μg wtHla pre-incubated with 2.5μg antibody) was less than 30%, the 保护率 (mice injected i.p. with 15μg wtHla pre-incubated with 5μg antibody) was less than 30%, the 保护率 (mice injected i.p. with 15μg wtHla pre-incubated with 10μg antibody) was 50% and the 小鼠生存率 (mice injected i.p. with 15μg wtHla pre-incubated with 20μg antibody) is more than 80%. The molecule also had an EC50 in experiment [2] of 0.33 µg/mL.

Values taken from patent publication CN116789813A.
